In the supplement of paper PMC7877785:
± gives the uncertainty stated by the source.

Experiment: self-splicing fitness, log relative to wild type (ln ratio); higher = more splicing; Tetrahymena group I intron in knt gene, E. coli kanamycin selection, DiMSum; sequences stand for … in CUCUCU…GGAGGGAAAAGUUAUCAGGCAUGCACCUGGUAGCUAGUCUUUAAACCAAUAGAUUGCAUCGGUUUAAAAGGCAAGACCGUCAAAUUGCGGGAAAGGGGUCAACAGCCGUUCAGUACCAAGUCUCAGGGGAAACUUUGAGAUGGCCUUGCAAAGGGUAUGGUAAUAAGCUGACGGACAUGGUCCUAACCACGCAGCCAAGUCCUAAGUCAACAGAUCUUCUGUUGAUAUGGAUGCAGUUCACAGACUAAAUGUCGGUCGGGGAAGAUGUAUUCUUCUCAUAAGAUAUAGUCGGACCUCUCCUUAAUGGGAGCUAGCGGAUGAAGUGAUGCAACACUGGAGCCGCUGGGAACUAAUUUGUAUGCGAAAGUAUAUUGAUUAGUUUUGGAGUACUCGUGGUCG
Outline: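 Six replicate transformations of E. coli BL21(DE3) with a pET-22b(+) library were grown overnight at 37°C or 30°C. The library randomised all eight P1ex-region intron nucleotides, the intron lying in the knt kanamycin-resistance gene, and plates were LB agar with or without 25 μg/mL kanamycin plus 100 μg/mL carbenicillin, 50 μM IPTG and 0.2% rhamnose. Pooled colonies were amplicon-sequenced on an Illumina HiSeq 2500, and fitness is the DiMSum error-weighted combination of wild-type-normalised replicate fold changes, kanamycin versus none.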

Row | Sequence | self-splicing fitness (ln) (30 °C) | self-splicing fitness (ln) (37 °C)
1 | UAUCAGCAAUAUUACGCCAG | -0.548 ± 0.15 | -0.584 ± 0.18
2 | UAUCAGCAAUAUUACGCCCC | 1 ± 0.34 | -1.06 ± 0.41
3 | UAUCAGCAAUAUUACGCCUC |  | -1.96 ± 0.47
4 | UAUCAGCAAUAUUACGCGGA | -0.964 ± 0.081 | -0.0724 ± 0.076
5 | UAUCAGCAAUAUUACGCUCG | -0.0189 ± 0.079 | 0.35 ± 0.12
6 | UAUCAGCAAUAUUACGCUUG | -0.489 ± 0.098 | 0.0735 ± 0.12
7 | UAUCAGCAAUAUUACGGAGG | -1.18 ± 0.13 | -0.979 ± 0.14
8 | UAUCAGCAAUAUUACGGAGU | -2.09 ± 0.068 | -0.974 ± 0.09
9 | UAUCAGCAAUAUUACGGAUU | -0.839 ± 0.079 | 0.0545 ± 0.1
10 | UAUCAGCAAUAUUACGGUUA | -0.0611 ± 0.064 | 0.0198 ± 0.07
11 | UAUCAGCAAUAUUACGGUUC | -2.42 ± 0.14 | 0.223 ± 0.12
12 | UAUCAGCAAUAUUACGUGAU | -3.01 ± 0.12 | -1.51 ± 0.11
13 | UAUGAGCAAUAUUACGAACC | -2.34 ± 0.4 | 
14 | UAUGAGCAAUAUUACGAAGU | -4.08 ± 0.42 | -1.93 ± 0.23
15 | UAUGAGCAAUAUUACGAAUG | -2.49 ± 0.17 | -1.28 ± 0.18
16 | UAUGAGCAAUAUUACGACGU | -3.11 ± 0.21 | -2.62 ± 0.3
17 | UAUGAGCAAUAUUACGAUUU | -3.29 ± 0.26 | -1.76 ± 0.22
18 | UAUGAGCAAUAUUACGCAGG | -2.59 ± 0.26 | -2.34 ± 0.22
19 | UAUGAGCAAUAUUACGCGCG | -2.51 ± 0.31 | -1.01 ± 0.27
20 | UAUGAGCAAUAUUACGCGGC | -4.02 ± 0.29 | -1.8 ± 0.25
21 | UAUGAGCAAUAUUACGCGGG | -2.75 ± 0.3 | -1.6 ± 0.23
22 | UAUGAGCAAUAUUACGCUAA | -1.99 ± 0.23 | -2.39 ± 0.25
23 | UAUGAGCAAUAUUACGCUCU | -3.16 ± 0.41 | 
24 | UAUGAGCAAUAUUACGCUGC | -4.14 ± 0.31 | -2.78 ± 0.3
25 | UAUGAGCAAUAUUACGGACA | -2.64 ± 0.35 | -2.28 ± 0.29
26 | UAUGAGCAAUAUUACGGAGA | -2.48 ± 0.28 | -2.34 ± 0.27

Row | Sequence | self-splicing fitness (ln) (30 °C) | self-splicing fitness (ln) (37 °C)
27 | UAUGAGCAAUAUUACGGAUU | -2.96 ± 0.28 | -2.28 ± 0.31
28 | UAUGAGCAAUAUUACGGCAA | -2.46 ± 0.38 | -2.15 ± 0.3
29 | UAUGAGCAAUAUUACGGCCA |  | -1.18 ± 0.28
30 | UAUGAGCAAUAUUACGGGGA | -2.94 ± 0.39 | 
31 | UAUGAGCAAUAUUACGGUCG | -2.52 ± 0.12 | -1.19 ± 0.12
32 | UAUGAGCAAUAUUACGUCAU | -3.16 ± 0.2 | -2.38 ± 0.23
33 | UAUGAGCAAUAUUACGUGCA | -2.09 ± 0.13 | -2.32 ± 0.15
34 | UAUGAGCAAUAUUACGUUGC | -2.19 ± 0.19 | -2.65 ± 0.23
35 | UAUUAGCAAUAUUACGACAU | -1.63 ± 0.017 | -0.705 ± 0.035
36 | UAUUAGCAAUAUUACGACGG | -0.886 ± 0.35 | 0.0207 ± 0.33
37 | UAUUAGCAAUAUUACGAGCG | -0.705 ± 0.11 | -0.219 ± 0.15
38 | UAUUAGCAAUAUUACGAGUC | -3.35 ± 0.48 | 
39 | UAUUAGCAAUAUUACGAUAG | -0.949 ± 0.16 | -0.79 ± 0.17
40 | UAUUAGCAAUAUUACGAUUA | 0.102 ± 0.13 | -0.402 ± 0.12
41 | UAUUAGCAAUAUUACGAUUU | -1.76 ± 0.14 | -0.438 ± 0.12
42 | UAUUAGCAAUAUUACGCACA | -0.485 ± 0.13 | -0.0783 ± 0.23
43 | UAUUAGCAAUAUUACGCGAG | -2.21 ± 0.2 | -0.0781 ± 0.15
44 | UAUUAGCAAUAUUACGCGCA | -0.12 ± 0.13 | 0.163 ± 0.18
45 | UAUUAGCAAUAUUACGCUAG | -2.36 ± 0.19 | -0.845 ± 0.15
46 | UAUUAGCAAUAUUACGCUAU |  | -2.14 ± 0.29
47 | UAUUAGCAAUAUUACGCUUG | -0.91 ± 0.11 | -0.336 ± 0.16
48 | UAUUAGCAAUAUUACGGCGU | -1.24 ± 0.18 | -0.989 ± 0.18
49 | UAUUAGCAAUAUUACGGGAU |  | -2.61 ± 0.41
50 | UAUUAGCAAUAUUACGGGUA | -0.742 ± 0.12 | -0.599 ± 0.11
51 | UAUUAGCAAUAUUACGGUCG | -0.442 ± 0.13 | 0.383 ± 0.23
52 | UAUUAGCAAUAUUACGGUGG | -2.71 ± 0.28 | -1.22 ± 0.2

Row | Sequence | self-splicing fitness (ln) (30 °C) | self-splicing fitness (ln) (37 °C)
53 | UAUUAGCAAUAUUACGUACC | -3.37 ± 0.37 | -1.26 ± 0.35
54 | UAUUAGCAAUAUUACGUAGA | -2.62 ± 0.19 | -1.38 ± 0.19
55 | UAUUAGCAAUAUUACGUAUU | -3.62 ± 0.17 | -1.25 ± 0.14
56 | UAUUAGCAAUAUUACGUCCA | -0.691 ± 0.11 | -0.00937 ± 0.15
57 | UAUUAGCAAUAUUACGUCUG | 0.0275 ± 0.14 | -0.652 ± 0.1
58 | UAUUAGCAAUAUUACGUGAG | -1.55 ± 0.094 | 0.0296 ± 0.13
59 | UAUUAGCAAUAUUACGUUAG | -2.33 ± 0.18 | -1.62 ± 0.17
60 | UAUUAGCAAUAUUACGUUUC | -3.79 ± 0.28 | -2.98 ± 0.34
61 | UCAAAGCAAUAUUACGAAGA | -2.21 ± 0.18 | -1.02 ± 0.13
62 | UCAAAGCAAUAUUACGACGU | -0.985 ± 0.063 | 0.289 ± 0.069
63 | UCAAAGCAAUAUUACGAUGG | -1.91 ± 0.1 | 0.127 ± 0.11
64 | UCAAAGCAAUAUUACGAUUU | -3.58 ± 0.24 | -2.3 ± 0.22
65 | UCAAAGCAAUAUUACGCACC |  | -0.644 ± 0.36
66 | UCAAAGCAAUAUUACGCGUC | -3.15 ± 0.14 | -2.89 ± 0.18
67 | UCAAAGCAAUAUUACGCGUU | -3.65 ± 0.18 | -3.64 ± 0.29
68 | UCAAAGCAAUAUUACGCUGU | -3.7 ± 0.21 | -2.82 ± 0.18
69 | UCAAAGCAAUAUUACGGCAC | -3.33 ± 0.38 | -1.68 ± 0.35
70 | UCAAAGCAAUAUUACGGGAG | -4.12 ± 0.3 | -2.5 ± 0.19
71 | UCAAAGCAAUAUUACGGGCC | -3.12 ± 0.4 | 
72 | UCAAAGCAAUAUUACGGUAA | -2.48 ± 0.16 | -0.268 ± 0.13
73 | UCAAAGCAAUAUUACGGUAG | -1.54 ± 0.088 | -1.19 ± 0.11
74 | UCAAAGCAAUAUUACGGUGC | -3.92 ± 0.42 | -1.94 ± 0.39
75 | UCAAAGCAAUAUUACGUAUC | -3.73 ± 0.23 | -2.17 ± 0.19
76 | UCAAAGCAAUAUUACGUAUG | -2.44 ± 0.12 | -2.05 ± 0.15
77 | UCAAAGCAAUAUUACGUCGC | -3.36 ± 0.18 | -2.43 ± 0.25
78 | UCAAAGCAAUAUUACGUCGU | -2.23 ± 0.11 | -1.28 ± 0.11
